The text below walks through data of patent CN1552735A.

Assay [1] has as its target CD44抗原 (THP-1细胞系表面) (UniProt P16070). As to the kind of experiment: flow cytometry on THP-1 cells, HI44a 20 μl (1 mg/ml) then competitor anti-CD44 ScFv 100 μl (1 mg/ml), goat anti-mouse IgG-FITC. For orientation: In flow cytometry, cells or beads pass a laser one at a time.
Assay [2] shares this target. The assay is described as follows: flow cytometry on CD44-positive THP-1 cells, HI44a 20 μl (1 mg/ml) then PBS (positive control), goat anti-mouse IgG-FITC.

B1: 抗CD44单克隆抗体HI44a (antibody, IgG2a, V domains shown)
VH: QVKLQESGPGILQPSQTLSLTCSISGFSLNTSGMGVSWIRQPSGKGLEWLAHIYWDDGKRYNPSLKSRLTISKDTSRNQVFLKITSVDTADTGTYYCARRAYGINFAFDYWGQGTTVTVSS
VL: DIQLTQTAAILSVSPGERVSFSCRTSQSIGTSIHWYHQRTNGSPRLLIKSASESMSGIPSRFSGSGSGTDFTLSINSVESEDIAYYYCQQSNSWPLTFGAGTKLEIKR
In the case of B1, in the assay with CD44抗原 (THP-1细胞系表面) [1], the 结合阳性率 (经抗CD44 ScFv竞争后) was 27.1%. Further, in the assay with CD44抗原 (THP-1细胞系表面) [2], the 结合阳性率 stood at 51%.
